Measured values published in US11278600B2, “Human alpha-galactosidase variants” (Codexis, Inc., priority 2014, dated 2022).
Where a chain is given by its changes, count along the chain named.

B1: 3 (protein)
chain: LDNGLARTPTMGWLHWERFMCNLDCQEEPDSCISEKLFMEMADLMVSDGWKDAGYEYLCIDDCWMAPQRDSEGRLQADPQRFPHGIRQLANYVHSKGLKLGIYADVGNKTCAGFPGSFGYYDIDAQTFADWGVDLLKFDGCYCDSLENLADGYKHMSLALNRTGRSIVYSCEWPLYMWPFQKPNYTEIRQYCNHWRNFADIDDSWKSIKSILDWTSFNQERIVDVAGPGGWNDPDMLVIGNFGLSWNQQVTQMALWAIMAAPLFMSNDLRHISPQAKALLQDKDVIAINQDPLGKQGYQLRQGDNFEVWERPLSGLAWAVAMINRQEIGGPRSYTIAVASLGKGVACNPACFITQLLPVKRKLGFYEWTSRLRSHINPTGTVLLQLENTMQMSLKDLL
modifications: Synthetic Polypeptide sequence of Variant No. 3 of mature Human GLA
B2: 13 (protein)
chain: B1 chain with D48E, N247D, R373K, I376V
modifications: Synthetic Polypeptide sequence of Variant No. 13 of mature Human GLA
B3: 5 (protein)
chain: B1 chain with I208V, R373K
modifications: Synthetic Polypeptide sequence of Variant No. 5 of mature Human GLA
B4: 12 (protein)
chain: B1 chain with D48E, I208V, Q299R, R373K, I376V
modifications: Synthetic Polypeptide sequence of Variant No. 12 of mature Human GLA
B5: 14 (protein)
chain: B1 chain with D48E, R373K, I376V
modifications: Synthetic Polypeptide sequence of Variant No. 14 of mature Human GLA
B6: 10 (protein)
chain: B1 chain with D48E, I208V, N247D
modifications: Synthetic Polypeptide sequence of Variant No. 10 of mature Human GLA
B7: 8 (protein)
chain: B1 chain with N247D, Q302K, R373K
modifications: Synthetic Polypeptide sequence of Variant No. 8 of mature Human GLA
B8: 11 (protein)
chain: B1 chain with D48E, I208V, N247D, Q299R, R373K, I376V
modifications: Synthetic Polypeptide sequence of Variant No. 11 of mature Human GLA
B9: 4 (protein)
chain: B1 chain with I208V, N247D, Q299R, Q302K, R373K, I376V
modifications: Synthetic Polypeptide sequence of Variant No. 4 of mature Human GLA
B10: 9 (protein)
chain: B1 chain with Q302K, R373K, I376V
modifications: Synthetic Polypeptide sequence of Variant No. 9 of mature Human GLA
B11: 15 (protein)
chain: B1 chain with D43E, I208V, Q299R, Q302K, R373K
modifications: Synthetic Polypeptide sequence of Variant No. 15 of mature Human GLA
B12: 7 (protein)
chain: B1 chain with N247D, Q299R, Q302K, R373K, I376V
modifications: Synthetic Polypeptide sequence of Variant No. 7 of mature Human GLA
B13: 6 (protein)
chain: B1 chain with I208V, R373K, I376V
modifications: Synthetic Polypeptide sequence of Variant No. 6 of mature Human GLA

What was measured:
Type in all cases: biochemical
[1] = HTP-analysis of supernatants pretreated with acid (MUGal hydrolysis); conditions: challenge at pH 4.3; activity of the variant/activity of WT GLA (SEQ ID NO: 5); yeast supernatant
Experimental: (§1) Yeast (INVSc1) cells transformed with vectors expressing GLA and GLA variants using the lithium acetate method were selected on SD-Ura agar plates. After 72 h incubation at 30° C. colonies were placed into the wells of Axygen® 1.1 ml 96-well deep well plates filled with 200 μl/well SD-Ura broth (2 g/L SD-Ura, 6.8 g/L yeast nitrogen base without amino acids [Sigma Aldrich]), 3.06 g/L sodium dihydrogen phosphate, 0.804 g/L disodium hydrogen phosphate, pH 6.0 supplemented with 6% glucose. The cells were allowed to grow for 20-24 hours in a Kuhner shaker (250 rpm, 30° C., and 85% relative humidity). Overnight culture samples (20 μL) were transferred into Corning Costar® 96-well deep plates filled with 380 µL of SD-ura broth supplemented with 2% glucose. The plates were incubated for 66-84 h in a Kuhner shaker (250 rpm, 30° C., and 85% relative humidity). The cells were then pelleted (4000 rpm×20 min), and the supernatants isolated and stored at 4° C. prior to analysis.
GLA variants were challenged with acidic buffer to simulate the extreme pHs that the variants may encounter in lysosomes. First, 50 μL of yeast culture supernatant and 50 uL of McIlvaine buffer (pH 3.3-4.3) were added to the wells of a 96-well round bottom plate. The plates were sealed with a PlateLoc Thermal Microplate Sealer (Agilent) and incubated at 37° C. for 1-3 h. For the assay, 10-50 uL of acid-pH-challenged sample was mixed with 0-40 μL, of McIlvaine buffer pH 4.8, 25 μL, of 1 M citrate buffer pH 4.3 and 25 μL, of 4 mM MUGal in McIlvaine buffer pH 4.8. The reactions were mixed briefly and incubated at 37° C. for 30-180 minutes, prior to quenching with 100 μL, of 1 M sodium carbonate. Hydrolysis was analyzed using a SpectraMax® M2 microplate reader monitoring fluorescence (Ex. 355 nm, Em. 448 nm).

[2] = HTP-analysis of supernatants pretreated with base (MUGal hydrolysis); conditions: challenge at pH 7.0; activity of the variant/activity of WT GLA (SEQ ID NO: 5); yeast supernatant
Experimental: as §1
GLA variants were challenged with basic (neutral) buffer to simulate the pHs that the variants encounter in the blood following their administration to a patient. First, 50 μL of yeast culture supernatant and 50 uL of McIlvaine buffer (pH 7.0-8.2) or 200 mM sodium bicarbonate (pH 9.1-9.7) were added to the wells of a 96-well round bottom plate. The plates were sealed and incubated at 37° C. for 1-18 h. For the assay, 10-50 μL of basic-pH-challenged sample was mixed with 0-40 μL, of McIlvaine buffer pH 4.8, 25 μL, of 1 M citrate buffer pH 4.3 and 25 μL, of 4 mM MUGal in McIlvaine buffer pH 4.8. The reactions were mixed briefly and incubated at 37° C. for 30-180 minutes, prior to quenching with 100 μL, of 1 M sodium carbonate. Hydrolysis was analyzed using a SpectraMax® M2 microplate reader monitoring fluorescence (Ex. 355 nm, Em. 448 nm).

[3] = HTP-analysis of yeast culture supernatants, no challenge (MUGal hydrolysis); conditions: activity of the variant/activity of WT GLA (SEQ ID NO: 5), yeast supernatant
Experimental: as §1
GLA variant activity was determined by measuring the hydrolysis of 4-methylumbelliferyl α-D-galactopyranoside (MUGal). For this assay, 5-50 μL, of yeast culture supernatant produced as described above, was mixed with 0-45 μL, of McIlvaine Buffer (McIlvaine, J. Biol. Chem., 49:183-186 [1921]), pH 4.8 and 50 μL of 2 mM MUGal in 50 mM citrate, 200 mM KCl, pH 4.6 in a 96-well, black, opaque bottom plate. The reactions were mixed briefly and incubated at 37° C. for 30-180 minutes, prior to quenching with 100 μL, of 1 M sodium carbonate. Hydrolysis was analyzed using a SpectraMax® M2 microplate reader monitoring fluorescence (Ex. 355 nm, Em. 448 nm).

Row | Molecule | Relative Activity of GLA Variants After Challenge at pH 4.3 [1] | Relative Activity of GLA Variants After Challenge at pH 7.0 [2] | Relative Activity of GLA Variants After No Challenge (NC) [3]
1 | B1 | + (+ = 0.5 to 1.5 relative activity over WT GLA (SEQ ID NO: 5)) | + (+ = 0.5 to 1.5 relative activity over WT GLA (SEQ ID NO: 5)) | + (+ = 0.5 to 1.5 relative activity over WT GLA (SEQ ID NO: 5))
2 | B2 | +++ (+++ = >2.5 relative activity over WT GLA (SEQ ID NO: 5)) | ++ (++ = >1.5 to 2.5 relative activity over WT GLA (SEQ ID NO: 5)) | ++ (++ = >1.5 to 2.5 relative activity over WT GLA (SEQ ID NO: 5))
3 | B3 | ++ (++ = >1.5 to 2.5 relative activity over WT GLA (SEQ ID NO: 5)) | ++ (++ = >1.5 to 2.5 relative activity over WT GLA (SEQ ID NO: 5)) | ++ (++ = >1.5 to 2.5 relative activity over WT GLA (SEQ ID NO: 5))
4 | B4 | ++ (++ = >1.5 to 2.5 relative activity over WT GLA (SEQ ID NO: 5)) | + (+ = 0.5 to 1.5 relative activity over WT GLA (SEQ ID NO: 5)) | + (+ = 0.5 to 1.5 relative activity over WT GLA (SEQ ID NO: 5))
5 | B5 | +++ (+++ = >2.5 relative activity over WT GLA (SEQ ID NO: 5)) | ++ (++ = >1.5 to 2.5 relative activity over WT GLA (SEQ ID NO: 5)) | + (+ = 0.5 to 1.5 relative activity over WT GLA (SEQ ID NO: 5))
6 | B6 | +++ (+++ = >2.5 relative activity over WT GLA (SEQ ID NO: 5)) | ++ (++ = >1.5 to 2.5 relative activity over WT GLA (SEQ ID NO: 5)) | ++ (++ = >1.5 to 2.5 relative activity over WT GLA (SEQ ID NO: 5))
7 | B7 | +++ (+++ = >2.5 relative activity over WT GLA (SEQ ID NO: 5)) | +++ (+++ = >2.5 relative activity over WT GLA (SEQ ID NO: 5)) | ++ (++ = >1.5 to 2.5 relative activity over WT GLA (SEQ ID NO: 5))
8 | B8 | +++ (+++ = >2.5 relative activity over WT GLA (SEQ ID NO: 5)) | ++ (++ = >1.5 to 2.5 relative activity over WT GLA (SEQ ID NO: 5)) | + (+ = 0.5 to 1.5 relative activity over WT GLA (SEQ ID NO: 5))
9 | B9 | +++ (+++ = >2.5 relative activity over WT GLA (SEQ ID NO: 5)) | + (+ = 0.5 to 1.5 relative activity over WT GLA (SEQ ID NO: 5)) | + (+ = 0.5 to 1.5 relative activity over WT GLA (SEQ ID NO: 5))
10 | B10 | +++ (+++ = >2.5 relative activity over WT GLA (SEQ ID NO: 5)) | + (+ = 0.5 to 1.5 relative activity over WT GLA (SEQ ID NO: 5)) | + (+ = 0.5 to 1.5 relative activity over WT GLA (SEQ ID NO: 5))
11 | B11 | + (+ = 0.5 to 1.5 relative activity over WT GLA (SEQ ID NO: 5)) | + (+ = 0.5 to 1.5 relative activity over WT GLA (SEQ ID NO: 5)) | + (+ = 0.5 to 1.5 relative activity over WT GLA (SEQ ID NO: 5))
12 | B12 | ++ (++ = >1.5 to 2.5 relative activity over WT GLA (SEQ ID NO: 5)) | + (+ = 0.5 to 1.5 relative activity over WT GLA (SEQ ID NO: 5)) | + (+ = 0.5 to 1.5 relative activity over WT GLA (SEQ ID NO: 5))
13 | B13 | +++ (+++ = >2.5 relative activity over WT GLA (SEQ ID NO: 5)) | + (+ = 0.5 to 1.5 relative activity over WT GLA (SEQ ID NO: 5)) | + (+ = 0.5 to 1.5 relative activity over WT GLA (SEQ ID NO: 5))
